The source of these data is patent US20120065106.

In series [1] the target is SMT3-GFP (wild-type SUMO-GFP fusion) [SUMO: Q12306].
The target of series [2] is T1, SUMO*-GFP (engineered SUMO 2F4, Smt3 R64T R71E, fused to GFP).
T1 chain: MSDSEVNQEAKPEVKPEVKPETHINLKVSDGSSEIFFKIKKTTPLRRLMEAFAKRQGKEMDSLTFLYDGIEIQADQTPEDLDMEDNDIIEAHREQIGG

For series [3], the target named is SUMO mutant 2E4 (R64T; R71E), GFP fusion [SUMO: Q12306].
Series [4] concerns the target SUMO mutant 1A3 (R64Q), GFP fusion [SUMO: Q12306].
Series [5] addresses SUMO mutant 2E11 (R64F; R71E), GFP fusion [SUMO: Q12306].
Series [6] addresses SUMO mutant 1C1 (R64L), GFP fusion [SUMO: Q12306].

B1: SUMO* protease 1 (ULP1 mutant 2.2; D451S, T452G, E455S) (protein)
chain: MGLVPELNEKDDDQVQKALASRENTQLMNRDNIEITVRDFKTLAPRRWLNSGIISFFMKYIEKSTPNTVAFNSFFYTNLSERGYQGVRRWMKRKKTQIDKLDKIFTPINLNQSHWALGIIDLKKKTIGYVDSLSNGPNAMSFAILTDLQKYVMEESKHTIGEDFDLIHLDCPQQPNGYDCGIYVCMNTLYGSADAPLDFDYKDAIRMRRFIAHLILTDALKLEHHHHHH
With B1, the “in vitro cleavage, protease titration (SDS-PAGE)” value (“in vitro cleavage … (SDS-PAGE)” below) in series [1] was “SUMO* protease 1 cleaves wild type SUMO, but less efficiently than SUMO*”; in series [2] it was “SUMO* protease 1 cleaves the SUMO* tag”. In addition, in series [2], the “% Cleavage of SUMO* tag” value stood at 100%.

B2: ULP1 mutant 1.38 (residues 451-455: S T I I A) (protein)
chain: LVPELNEKDDDQVQKALASRENTQLMNRDNIEITVRDFKTLAPRRWLNSTIIAFFMKYIEKSTPNTVAFNSFFYTNLSERGYQGVRRWMKRKKTQIDKLDKIFTPINLNQSHWALGIIDLKKKTIGYVDSLSNGPNAMSFAILTDLQKYVMEESKHTIGEDFDLIHLDCPQQPNGYDCGIYVCMNTLYGSADAPLDFDYKDAIRMRRFIAHLILTDALK
On to B2, for which the “% Cleavage of SUMO* tag” value in series [2] is given as 75%.

B3: ULP1 mutant 1.48 (residues 451-455: S T I I M) (protein)
chain: LVPELNEKDDDQVQKALASRENTQLMNRDNIEITVRDFKTLAPRRWLNSTIIMFFMKYIEKSTPNTVAFNSFFYTNLSERGYQGVRRWMKRKKTQIDKLDKIFTPINLNQSHWALGIIDLKKKTIGYVDSLSNGPNAMSFAILTDLQKYVMEESKHTIGEDFDLIHLDCPQQPNGYDCGIYVCMNTLYGSADAPLDFDYKDAIRMRRFIAHLILTDALK
For the protein B3, in series [2], the “% Cleavage of SUMO* tag” value turned out to be 75%.

B4: ULP1 (wild-type SUMO protease 1) (protein)
chain: LVPELNEKDDDQVQKALASRENTQLMNRDNIEITVRDFKTLAPRRWLNDTIIEFFMKYIEKSTPNTVAFNSFFYTNLSERGYQGVRRWMKRKKTQIDKLDKIFTPINLNQSHWALGIIDLKKKTIGYVDSLSNGPNAMSFAILTDLQKYVMEESKHTIGEDFDLIHLDCPQQPNGYDCGIYVCMNTLYGSADAPLDFDYKDAIRMRRFIAHLILTDALK
Take B4: in series [1], the “% Cleavage with ULP1” value is reported as 100%; the “in vitro cleavage (SDS-PAGE and anti-Smt3 Western blot)” value was “wild-type SUMO (Smt3) is cleaved by ULP1 and SENP2 (SUMO protease 1 and 2) in vitro”; the “in vitro cleavage … (SDS-PAGE)” value is listed as “ULP1 cleaves the SMT3 tag”. Moreover, the “% Cleavage with ULP1” value in series [3] was determined as 0%. Also, the “% Cleavage with ULP1” value in series [4] is listed as 10%. Further, in series [2], the “% Cleavage of SUMO* tag” value amounted to 0%; the “% Cleavage with ULP1” value is recorded as 0%; the “in vitro cleavage reaction” value was “Neither protease cleaved SUMO*”; the “in vitro cleavage, protease titration” value was “incubated with increasing amounts of Ulp1 up to 1000 fold excess of the enzyme concentration required to fully cleave SUMO and still no cleavage was detected”. For the same protein, the “in vitro cleavage … (SDS-PAGE)” value in series [2] is listed as “ULP1 does not cleave SUMO* tag”. Also, the “% Cleavage with ULP1” value in series [5] is reported as 0%. For the same protein, the “% Cleavage with ULP1” value in series [6] came to 10%.

B5: ULP1 mutant 2.3 (residues 451-455: A M I I A) (protein)
chain: LVPELNEKDDDQVQKALASRENTQLMNRDNIEITVRDFKTLAPRRWLNAMIIAFFMKYIEKSTPNTVAFNSFFYTNLSERGYQGVRRWMKRKKTQIDKLDKIFTPINLNQSHWALGIIDLKKKTIGYVDSLSNGPNAMSFAILTDLQKYVMEESKHTIGEDFDLIHLDCPQQPNGYDCGIYVCMNTLYGSADAPLDFDYKDAIRMRRFIAHLILTDALK
With B5, the “% Cleavage of SUMO* tag” value in series [2] came to 10%.
